Laboratory results as given in patent US20170333570A1 (FORMATION BIOLOGICS, published 2017).

Target: human epidermal growth factor receptor (hEGFR) (human, UniProt P00533 25-1210)
Assay: cell-based or functional assay

Binder | IC50 (nM), cell growth/survival (sulforhodamine B), A549 | IC50 (nM), cell growth/survival (sulforhodamine B), NCI-H226 | IC50 (nM), cell growth/survival (sulforhodamine B), NCI-H292
992-DM1 (antibody, V domains shown, DM1 conjugated through SMCC linker; conjugated residues and chain not stated) VH: EVQLQQPGSELVRPGASVKLSCKASGYTFTSYWMHWVKQRPGQGLEWIGNIYPGSRSTNYDEKFKSKATLTVDTSSSTAYMQLSSLTSEDSAVYYCTRNGDYYVSSGDAMDYWGQGTSVTVS VL: DIQMTQTTSSLSASLGDRVTISCRTSQDIGNYLNWYQQKPDGTVKLLIYYTSRLHSGVPSRFSGSGSGTDFSLTINNVEQEDVATYFCQHYNTVPPTFGGGTKLEIKR | 2.2 nM | 1.07 nM | 0.22 nM
1024-DM1 (antibody, V domains shown, DM1 conjugated through SMCC linker; conjugated residues and chain not stated) VH: QVQLQQPGAELVEPGGSVKLSCKASGYTFTSHWMHWVKQRPGQGLEWIGEINPSSGRNNYNEKFKSKATLTVDKSSSTAYMQFSSLTSEDSAVYYCVRYYGYDEAMDYWGQGTSVTVS VL: DIVMTQAAFSNPVTLGTSASISCRSSKSLLHSNGITYLYWYLQKPGQSPQLLIYQMSNLASGVPDRFSSSGSGTDFTLRISRVEAEDVGVYYCAQNLELPYTFGGGTKLEIKR | 24.7 nM | 1.89 nM | 0.09 nM
